No end group written: not given here.
B1: purified recombinant HA frankenbody fused to GFP (from pET23b-FB-GFP) (scFv, V domains shown)
VH: EVKLVESGGGLVKPGGSLKLSCAASGFTFSSYGMSWVRQTPEKRLEWVATISRGGSYTYYPDSVKGRFTISRDNAKNTLYLQMSSLRSEDTAIYYCARRETYDEKGFAYWGQGTTLTVSS
VL: DIVLTQSPASLTVSLGQRATISCKSSQSLLNSGNQKNYLTWYQQKPGQPPKLLIYWASTRESGIPARFSGSGSGTDFTLNIHPVEEEDAATYYCQNDNSHPLTFGAGTKLEI
notes: also called purified FB-GFP; purified frankenbody; source: E. coli BL21 (DE3) pLysS, purified (HisTrap HP, Superdex 200)
B2: HA frankenbody fused to mEGFP (χ15F11^HA) (scFv, V domains shown)
VH: B1 VH
VL: B1 VL
notes: also called FB-GFP; FB

How the values were obtained:
[1] = biological target: T1, biotin-labeled HA peptide (HA epitope peptide (influenza A virus …, also: biotin label, position not given here)); assay: SPR; conditions: both partners purified
T1 chain: YPYDVPDYA

[2] = biological target: T2, mitoNEET (Mito) fused to mCherry and the spaghetti monster HA tag (synthetic HA epitope tag (influenza A …)); assay: co-localisation of the fluorescent scFv with its tagged target in living cells; conditions: partners not purified
T2 construct: also called Mito-mCh-smHA; smHA-tagged Mito; source: U2OS, transfected, in living cells; not shown: mCherry, internal (between Mito and smHA), kept
T2 chain: YPYDVPDYA

[3] = biological target: T3, mitoNEET (Mito) fused to mCherry and 1 × HA (synthetic HA epitope tag (influenza A …, UniProt P03437)); conditions: partners not purified
T3 chain: YPYDVPDYA

Binder | Kd [1] | Mito/Bg (mitochondria to background fluorescent intensity ratio) [2] | Mito/Bg (mitochondria to background fluorescent intensity ratio) [3]
B1 | 14.7 ± 7.4 nM | – | –
B2 | – | 16.6 | 3.5

Reference: paper PMC6610143 (Nature Communications, 2019)
